As usually defined, the Kd is the constant that tells how readily two partners part at equilibrium. One may read the stoichiometry N as the number of molecules, sites or subunits per partner or assembly.

One molecule from PMC5114850 (Science (New York, N.Y.), 2016) can be followed below.

In this assay the target is recombinant human calmodulin (human, UniProt P0DP23 1-149). Nature of the assay: ITC.

With Ac-EDLSSSYYRDYVKKILKKKK-NH2 [CaMBP0 peptide of zebrafish STRA6], the dissociation constant Kd was 2560 ± 722 nM, the dH was -7.8 ± 0.8 kcal/mol and the “stoichiometry N” value was determined as 1.01 ± 0.07 sites.
